According to patent US20080058263A1 (published 2008):
Where a chain is given by its changes, count along the chain named.

B1: 34-11 (ligand)
chain: GQNHHEVVKSIDNEWRKTQCMPIETLVDIFQEFGVATNTFFKPSCVPLMRCGGCCNSEGLQCVPTEESNITMQIMRITVPLSQGPKPVTISFLQHNKCECRPKKD
B2: 34-1 (ligand)
chain: GQNHHEVVKSIDNEWRKTQCMPIETLVDIFQEFGVATNTFFKPSCVPLMRCGGCCNDEGLECVPTEESNITMQIMRIKPHQGQHIGEMSFLQHNKCECRPKKD
B3: 34-5 (ligand)
chain: B2 chain with L91A, Q92N, N94T, K95S, E97R, R99M, P100S, K102L
B4: 34-3 (ligand)
chain: B2 chain with D57S, E61Q
B5: 34-7 (ligand)
chain: B2 chain with D57S, E61Q, L91A, Q92N, N94T, K95S, E97R, R99M, P100S, K102L
B6: 23-13 (ligand)
chain: AHYNTEILKSIDNEWRKTQCMPREVCIDVGKEYPDEIEYIFKPPCVSVYRCGGCCNDEGLECVPTEESNITMQIMRITVPLSQGPKPVTISFANHTSCRCMSKLD
B7: 23-15 (ligand)
chain: B6 chain with D57S, E61Q
B8: 33-5 (ligand)
chain: GQNHHEVVKSIDNEWRKTQCMPIETLVDIFQEYPDEIEYIFKPPCVSVYRCGGCCNDEGLECVPTEESNITMQIMRIKPHQGQHIGEMSFANHTSCRCMSKLD
B9: 33-7 (ligand)
chain: B8 chain with D57S, E61Q
B10: 23-3 (ligand)
chain: AHYNTEILKSIDNEWRKTQCMPREVCIDVGKEYPDEIEYIFKPPCVSVYRCGGCCNSEGLQCVPTEESNITMQIMRIKPHQGQHIGEMSFLQHNKCECRPKKD
B11: 23-7 (ligand)
chain: B10 chain with L91A, Q92N, N94T, K95S, E97R, R99M, P100S, K102L
B12: 21-1 (ligand)
chain: B10 chain with P44S, S47P, V48L, Y49M, S57D, Q61E
B13: 33-2 (ligand)
chain: GQNHHEVVKSIDNEWRKTQCMPIETLVDIFQEYPDEIEYIFKPPCVSVYRCGGCCNDEGLECMNTSTSYLSKTLFEIKPHQGQHIGEMSFLQHNKCECRPKKD
B14: 33-4 (ligand)
chain: B13 chain with D57S, E61Q
B15: 33-6 (ligand)
chain: B13 chain with L91A, Q92N, N94T, K95S, E97R, R99M, P100S, K102L
B16: 33-8 (ligand)
chain: B13 chain with D57S, E61Q, L91A, Q92N, N94T, K95S, E97R, R99M, P100S, K102L
B17: 31-4 (ligand)
chain: GQNHHEVVKSIDNEWRKTQCMPIETLVDIFQEYPDEIEYIFKPSCVPLMRCGGCCNDEGLECVPTEESNITMQIMRITVPLSQGPKPVTISFANHTSCRCMSKLD
B18: 33-13 (ligand)
chain: B17 chain with S44P, P47S, L48V, M49Y
B19: 33-15 (ligand)
chain: B17 chain with S44P, P47S, L48V, M49Y, D57S, E61Q
B20: 34-13 (ligand)
chain: B17 chain with Y33F, P34G, D35V, E36A, I37T, E38N, Y39T, I40F
B21: 33-14 (ligand)
chain: GQNHHEVVKSIDNEWRKTQCMPIETLVDIFQEYPDEIEYIFKPPCVSVYRCGGCCNDEGLECMNTSTSYLSKTLFEITVPLSQGPKPVTISFANHTSCRCMSKLD
B22: 33-16 (ligand)
chain: B21 chain with D57S, E61Q

biological target: T1, VEGFR-2-Fc (UniProt P35968 20-322); experiment: receptor-Fc IP
T1 construct: domain: first 3 Ig domains; conditioned supernatant of 293T cells; also called VEGFR-2-Fc fusion protein; not shown: Fc fragment of the pIg vector
In short: (§1)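 Binding of ligand from sample supernatant measured by pentahistidine-antibody immunoprecipitation. IP mix: PBS with 1.5% BSA, 0.06% Tween 20, 3 μg/ml heparin and 400 ng/ml fusion protein, added 1:2 to sample supernatant.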

T1 sequence (P35968 20-322): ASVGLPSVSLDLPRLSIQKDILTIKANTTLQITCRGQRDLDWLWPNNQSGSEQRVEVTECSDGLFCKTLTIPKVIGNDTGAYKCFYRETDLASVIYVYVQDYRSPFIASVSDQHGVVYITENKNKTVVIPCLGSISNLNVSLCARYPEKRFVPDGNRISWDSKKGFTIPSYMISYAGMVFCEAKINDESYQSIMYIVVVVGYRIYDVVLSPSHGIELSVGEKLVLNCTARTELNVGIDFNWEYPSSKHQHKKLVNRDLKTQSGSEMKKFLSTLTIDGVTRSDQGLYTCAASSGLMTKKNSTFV

Binding result, no binding:
B1, B2, B3, B4, B5, B6, B7, B8, B9, B10, B11, B12, B13, B14, B15, B16, B17, B18, B19, B20, B21, B22

biological target: T2, VEGFR-1-Fc (UniProt P17948 27-338); experiment: receptor-Fc IP
T2 construct: domain: first three Ig domains; expressed in Drosophila S2 cells, purified on Protein A sepharose; also called VEGFR-1-Fc fusion protein; not shown: Fc fragment from the Signal-pIgPlus vector
In short: as §1

T2 sequence (P17948 27-338): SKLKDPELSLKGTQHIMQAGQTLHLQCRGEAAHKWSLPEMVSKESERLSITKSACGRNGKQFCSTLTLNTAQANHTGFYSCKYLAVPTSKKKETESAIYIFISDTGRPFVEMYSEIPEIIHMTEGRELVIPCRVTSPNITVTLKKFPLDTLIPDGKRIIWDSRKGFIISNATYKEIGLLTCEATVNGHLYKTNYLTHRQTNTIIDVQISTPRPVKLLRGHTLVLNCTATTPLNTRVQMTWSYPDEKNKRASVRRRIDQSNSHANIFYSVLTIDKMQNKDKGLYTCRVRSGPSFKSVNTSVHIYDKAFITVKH

Binding result, no binding:
B1, B2, B3, B4, B5, B6, B7, B8, B9, B10, B11, B12, B13, B14, B15, B16, B17, B18, B19, B20, B21, B22

biological target: T3, VEGFR-3-Fc (UniProt P35916 25-328); experiment: receptor-Fc IP
T3 construct: domain: first three Ig domains; conditioned supernatant of 293T cells; also called VEGFR-3-Fc fusion protein; not shown: Fc fragment of the pIg vector
T3 sequence (looked up): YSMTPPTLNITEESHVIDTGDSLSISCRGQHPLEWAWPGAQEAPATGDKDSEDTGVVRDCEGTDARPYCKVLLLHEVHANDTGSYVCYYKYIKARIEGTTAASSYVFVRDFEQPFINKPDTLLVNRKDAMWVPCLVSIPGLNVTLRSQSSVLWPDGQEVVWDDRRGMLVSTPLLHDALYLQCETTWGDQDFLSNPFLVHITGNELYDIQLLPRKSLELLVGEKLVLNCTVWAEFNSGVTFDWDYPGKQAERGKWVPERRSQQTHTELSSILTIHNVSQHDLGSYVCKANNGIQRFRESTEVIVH
In short: as §1

Binding result, no binding:
B1, B2, B3, B4, B5, B6, B7, B8, B9, B10, B11, B12, B13, B14, B15, B16, B17, B18, B19, B20, B21, B22
